According to patent US20060074049A1, “Use of heparinoids for treatment and prevention of dementia” (priority 2004, published 2006):

Test system: human NPC
Assay: Plating assay: NPC colony formation / quiescence
Assay type: cell-based
Conditions: fraction less than 30,000 Da after size-exclusion column
Protocol: Cells and Materials: Normal human NPC were obtained from Clonetics Corp (San Diego, Calif.), and grown in neural progenitor maintenance medium (Clonetics) with human recombinant basic fibroblast growth factor, epidermal growth factor, neural survival factors and antibiotics. These cells were derived as described previously (Svendsen (1998) J. Neurosci. Meth. 85:141-152).
Plating Assay: On day 0, HIV coat proteins at a concentration of 800 pM, or CSF at a concentration of 2% was added to cultures of NPC. Each protein or CSF sample was tested in triplicate. Cultures were incubated for seven days, and then cells were plated onto 24 well polyethylene-imine coated plates. The number of cell colonies having more than 20 cells with typical neuronal morphology was counted for each well after 7 days in culture. Determinations of colony inhibition for all proteins and CSF samples were done on each of three different lots of NPC. […]
The ability of HIV coat proteins to induce quiescence in human NPC was tested using NPC in the form of neurospheres. […] The number of colonies containing more than 20 cells with typical neuronal morphology was counted after 7 days in culture. […] None of the coat proteins induced cell death in NPC, as determined by trypan blue staining (>95% viability in all coat-protein treated cultures). […]

B1: RANTES: inflammatory chemokine (protein, UniProt P13501 24-91, looked up)
C-C motif chemokine 5: SPYSSDTTPCCFAYIARPLPRAHIKEYFYTSGKCSNPAVVFVTRKNRQVCANPEKKWVREYINSLEMS
For B1, the “effect on NPC in the plating assay” value was “inhibit NPC”.
